Results reported in the supplement of paper PMC9112550, “Optimization of the antimicrobial peptide Bac7 by deep mutational scanning” (BMC Biology, 2022).

Test system: Escherichia coli TOP10
Assay: shrunken log2 fold change of peptide-encoding DNA abundance (4.5 h post-induction vs induction); higher = less antimicrobial activity (less host growth inhibition)
Details: time post-induction: 4.5 h; library: site-saturation at positions 5, 18, 19, 20
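Note: peptides expressed intracellularly from a pBAD plasmid library in pooled LB shake-flask culture, induced with 0.3% L-arabinose, DNA abundance read by NGS, three biological replicates, DESeq2 with apeglm shrinkage.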

Sequence	shrunken log2 fold change
RRIRQRPPRLPRPRPRPLTTPRP	0.106
RRIRQRPPRLPRPRPRPLVSPRP	0.00785
RRIRQRPPRLPRPRPRPLYKPRP	-1.34
RRIRQRPPRLPRPRPRPMCWPRP	-0.00818
RRIRQRPPRLPRPRPRPMHCPRP	0.0165
RRIRQRPPRLPRPRPRPMHHPRP	-0.288
RRIRQRPPRLPRPRPRPMKFPRP	-0.21
RRIRQRPPRLPRPRPRPMMFPRP	-0.3
RRIRQRPPRLPRPRPRPMMIPRP	-0.0862
RRIRQRPPRLPRPRPRPMMKPRP	-0.0269
RRIRQRPPRLPRPRPRPMPPPRP	0.517
RRIRQRPPRLPRPRPRPMQEPRP	0.0325
RRIRQRPPRLPRPRPRPMQFPRP	0.0624
RRIRQRPPRLPRPRPRPMQNPRP	-0.324
RRIRQRPPRLPRPRPRPMTMPRP	-0.243
RRIRQRPPRLPRPRPRPMVEPRP	0.168
RRIRQRPPRLPRPRPRPMVWPRP	-0.0183
RRIRQRPPRLPRPRPRPMWCPRP	-0.339
RRIRQRPPRLPRPRPRPMYKPRP	-0.0194
RRIRQRPPRLPRPRPRPMYMPRP	-0.0317
RRIRQRPPRLPRPRPRPNAEPRP	0.053
RRIRQRPPRLPRPRPRPNANPRP	0.00568
RRIRQRPPRLPRPRPRPNARPRP	-0.0902
RRIRQRPPRLPRPRPRPNEHPRP	-0.0963
RRIRQRPPRLPRPRPRPNIGPRP	-0.0212

Sequence	shrunken log2 fold change
RRIRQRPPRLPRPRPRPNIVPRP	-0.044
RRIRQRPPRLPRPRPRPNKQPRP	0.0262
RRIRQRPPRLPRPRPRPNKVPRP	-0.468
RRIRQRPPRLPRPRPRPNLAPRP	0.281
RRIRQRPPRLPRPRPRPNMQPRP	-0.619
RRIRQRPPRLPRPRPRPNQNPRP	-0.24
RRIRQRPPRLPRPRPRPNQSPRP	-0.0722
RRIRQRPPRLPRPRPRPNTNPRP	-0.47
RRIRQRPPRLPRPRPRPNVFPRP	-0.14
RRIRQRPPRLPRPRPRPNWHPRP	0.141
RRIRQRPPRLPRPRPRPNWRPRP	0.107
RRIRQRPPRLPRPRPRPPATPRP	0.452
RRIRQRPPRLPRPRPRPPCDPRP	-0.0587
RRIRQRPPRLPRPRPRPPDGPRP	0.351
RRIRQRPPRLPRPRPRPPDKPRP	-0.116
RRIRQRPPRLPRPRPRPPFFPRP	0.249
RRIRQRPPRLPRPRPRPPFIPRP	-0.0092
RRIRQRPPRLPRPRPRPPFTPRP	-0.0512
RRIRQRPPRLPRPRPRPPGAPRP	0.757
RRIRQRPPRLPRPRPRPPGEPRP	0.119
RRIRQRPPRLPRPRPRPPHIPRP	0.213
RRIRQRPPRLPRPRPRPPIIPRP	-0.0647
RRIRQRPPRLPRPRPRPPLIPRP	0.0445
RRIRQRPPRLPRPRPRPPMPPRP	0.237
RRIRQRPPRLPRPRPRPPNHPRP	-0.157

Sequence	shrunken log2 fold change
RRIRQRPPRLPRPRPRPPPQPRP	0.712
RRIRQRPPRLPRPRPRPPPRPRP	1.25
RRIRQRPPRLPRPRPRPPRLPRP	0.287
RRIRQRPPRLPRPRPRPPSCPRP	0.348
RRIRQRPPRLPRPRPRPPSHPRP	0.0871
RRIRQRPPRLPRPRPRPPTEPRP	-0.153
RRIRQRPPRLPRPRPRPPTKPRP	0.209
RRIRQRPPRLPRPRPRPPTQPRP	0.0976
RRIRQRPPRLPRPRPRPPTVPRP	-0.225
RRIRQRPPRLPRPRPRPPTWPRP	-0.0557
RRIRQRPPRLPRPRPRPPVNPRP	-0.0759
RRIRQRPPRLPRPRPRPPYIPRP	-0.449
RRIRQRPPRLPRPRPRPQCCPRP	-0.0133
RRIRQRPPRLPRPRPRPQCQPRP	0.05
RRIRQRPPRLPRPRPRPQDAPRP	-0.253
RRIRQRPPRLPRPRPRPQEQPRP	-0.000777
RRIRQRPPRLPRPRPRPQFFPRP	-0.122
RRIRQRPPRLPRPRPRPQGHPRP	-0.017
RRIRQRPPRLPRPRPRPQGNPRP	0.00341
RRIRQRPPRLPRPRPRPQIWPRP	0.0984
RRIRQRPPRLPRPRPRPQIYPRP	0.0392
RRIRQRPPRLPRPRPRPQNCPRP	0.0179
RRIRQRPPRLPRPRPRPQNMPRP	-0.506
RRIRQRPPRLPRPRPRPQPMPRP	0.348
RRIRQRPPRLPRPRPRPQPYPRP	-0.0274

Sequence	shrunken log2 fold change
RRIRQRPPRLPRPRPRPQQVPRP	-0.0545
RRIRQRPPRLPRPRPRPQRNPRP	-0.23
RRIRQRPPRLPRPRPRPQTHPRP	-0.293
RRIRQRPPRLPRPRPRPQTVPRP	-0.0925
RRIRQRPPRLPRPRPRPQTWPRP	0.126
RRIRQRPPRLPRPRPRPQVLPRP	0.00177
RRIRQRPPRLPRPRPRPQVTPRP	-0.00931
RRIRQRPPRLPRPRPRPQYDPRP	-0.081
RRIRQRPPRLPRPRPRPRADPRP	0.156
RRIRQRPPRLPRPRPRPRANPRP	0.367
RRIRQRPPRLPRPRPRPRDMPRP	-0.046
RRIRQRPPRLPRPRPRPRGYPRP	-0.00234
RRIRQRPPRLPRPRPRPRHWPRP	0.218
RRIRQRPPRLPRPRPRPRILPRP	-0.275
RRIRQRPPRLPRPRPRPRLNPRP	-0.111
RRIRQRPPRLPRPRPRPRMDPRP	-0.0734
RRIRQRPPRLPRPRPRPRMMPRP	-0.161
RRIRQRPPRLPRPRPRPRMPPRP	0.216
RRIRQRPPRLPRPRPRPRNVPRP	-0.0777
RRIRQRPPRLPRPRPRPRRAPRP	0.79
RRIRQRPPRLPRPRPRPRSHPRP	0.183
RRIRQRPPRLPRPRPRPRTPPRP	0.676
RRIRQRPPRLPRPRPRPRVGPRP	0.71
RRIRQRPPRLPRPRPRPRYDPRP	-0.0523
RRIRQRPPRLPRPRPRPSACPRP	0.42

Sequence	shrunken log2 fold change
RRIRQRPPRLPRPRPRPSAMPRP	0.218
RRIRQRPPRLPRPRPRPSAYPRP	-0.247
RRIRQRPPRLPRPRPRPSCGPRP	0.117
RRIRQRPPRLPRPRPRPSCLPRP	-0.0903
RRIRQRPPRLPRPRPRPSDQPRP	0.152
RRIRQRPPRLPRPRPRPSEFPRP	-0.0736
RRIRQRPPRLPRPRPRPSGIPRP	0.144
RRIRQRPPRLPRPRPRPSHDPRP	-0.104
RRIRQRPPRLPRPRPRPSHYPRP	-0.224
RRIRQRPPRLPRPRPRPSIEPRP	-0.373
RRIRQRPPRLPRPRPRPSKDPRP	-0.462
RRIRQRPPRLPRPRPRPSKQPRP	-0.0831
RRIRQRPPRLPRPRPRPSMWPRP	0.0422
RRIRQRPPRLPRPRPRPSNAPRP	-0.198
RRIRQRPPRLPRPRPRPSNIPRP	-0.286
RRIRQRPPRLPRPRPRPSPFPRP	0.0122
RRIRQRPPRLPRPRPRPSRCPRP	-0.177
RRIRQRPPRLPRPRPRPSRFPRP	3.97
RRIRQRPPRLPRPRPRPSRYPRP	-0.00452
RRIRQRPPRLPRPRPRPSSFPRP	-0.308
RRIRQRPPRLPRPRPRPSSGPRP	-0.0384
RRIRQRPPRLPRPRPRPSTNPRP	-0.364
RRIRQRPPRLPRPRPRPSTPPRP	-0.311
RRIRQRPPRLPRPRPRPSTTPRP	-0.572
RRIRQRPPRLPRPRPRPSVWPRP	0.128

Sequence	shrunken log2 fold change
RRIRQRPPRLPRPRPRPSYEPRP	0.0509
RRIRQRPPRLPRPRPRPSYFPRP	-0.515
RRIRQRPPRLPRPRPRPSYLPRP	-0.482
RRIRQRPPRLPRPRPRPSYWPRP	-0.0858
RRIRQRPPRLPRPRPRPTCIPRP	-0.0736
RRIRQRPPRLPRPRPRPTDPPRP	0.107
RRIRQRPPRLPRPRPRPTDVPRP	-0.194
RRIRQRPPRLPRPRPRPTEAPRP	-0.0735
RRIRQRPPRLPRPRPRPTEPPRP	0.00378
RRIRQRPPRLPRPRPRPTERPRP	0.313
RRIRQRPPRLPRPRPRPTFWPRP	2.04
RRIRQRPPRLPRPRPRPTGDPRP	0.349
RRIRQRPPRLPRPRPRPTGTPRP	0.285
RRIRQRPPRLPRPRPRPTKEPRP	0.0425
RRIRQRPPRLPRPRPRPTLNPRP	0.0729
RRIRQRPPRLPRPRPRPTLYPRP	-0.0318
RRIRQRPPRLPRPRPRPTMCPRP	-0.0814
RRIRQRPPRLPRPRPRPTMKPRP	-0.314
RRIRQRPPRLPRPRPRPTMPPRP	0.2
RRIRQRPPRLPRPRPRPTNAPRP	-0.309
RRIRQRPPRLPRPRPRPTNIPRP	-0.122
RRIRQRPPRLPRPRPRPTPLPRP	0.487
RRIRQRPPRLPRPRPRPTSWPRP	-0.00172
RRIRQRPPRLPRPRPRPTTSPRP	0.1
RRIRQRPPRLPRPRPRPTWAPRP	0.586
